# According to IntAct's records for PubMed 19176810:
# Target: fadd_human FADD (UniProt Q13158)
# Sequence of UniProt Q13158 (Q13158 whole entry): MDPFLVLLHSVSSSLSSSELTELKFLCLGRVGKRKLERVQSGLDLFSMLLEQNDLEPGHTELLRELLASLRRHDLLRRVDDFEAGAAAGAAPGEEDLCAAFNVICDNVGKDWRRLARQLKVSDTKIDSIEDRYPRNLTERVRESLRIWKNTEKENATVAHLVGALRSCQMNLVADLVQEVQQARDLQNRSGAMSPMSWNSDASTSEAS
row,effect of a mutation on the interaction,Substance
1,increasing interaction,"Leucine-rich repeat serine/threonine-protein kinase 2 (Homo sapiens), Q5S007 G2019S"
2,increasing interaction,"Leucine-rich repeat serine/threonine-protein kinase 2 (Homo sapiens), Q5S007 R1441C"
3,increasing interaction,"Leucine-rich repeat serine/threonine-protein kinase 2 (Homo sapiens), Q5S007 I2020T"
4,increasing interaction,"Leucine-rich repeat serine/threonine-protein kinase 2 (Homo sapiens), Q5S007 Y1699C"
